Source: PMC12204343, “Regulatory Role of Serine59 in the Oligomeric Dynamics and Chaperone Function of αB-Crystallin” (Research Square, 2025)
Residue numbers refer to the chain shown, from its start. Numbers in names are those of the source.

T1: Alcohol dehydrogenase (UniProt P00330 1-348)
T1 sequence (looked up): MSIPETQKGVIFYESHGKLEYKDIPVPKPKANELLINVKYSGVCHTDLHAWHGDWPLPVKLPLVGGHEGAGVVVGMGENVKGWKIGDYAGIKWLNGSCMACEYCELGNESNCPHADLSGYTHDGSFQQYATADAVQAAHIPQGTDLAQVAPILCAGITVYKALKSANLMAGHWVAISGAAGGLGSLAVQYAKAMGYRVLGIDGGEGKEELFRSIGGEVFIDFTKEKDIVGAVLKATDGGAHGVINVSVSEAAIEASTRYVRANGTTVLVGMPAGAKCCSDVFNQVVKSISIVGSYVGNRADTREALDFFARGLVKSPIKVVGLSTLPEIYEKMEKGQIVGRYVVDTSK

B1: αB-crystallin with residues 54–61 deleted (natural protein, human, UniProt P02511 1-175, looked up)
chain: MDIAIHHPWIRRPFFPFHSPSRLFDQFFGEHLLESDLFPTSTSLSPFYLRPPSDTGLSEMRLEKDRFSVNLDVKHFSPEELKVKVLGDVIEVHGKHEERQDEHGFISREFHRKYRIPADVDPLTITSSLSSDGVLTVNGPRKQVSGPERTIPITREEKPAVTAAPKK
notes: αB-crystallin, human, with residues 54–61 deleted; also called αB-Δ54–61; αBΔ54–61
B2: αB-crystallin S59A (natural protein, human, UniProt P02511 1-175, looked up)
chain: MDIAIHHPWIRRPFFPFHSPSRLFDQFFGEHLLESDLFPTSTSLSPFYLRPPSFLRAPAWFDTGLSEMRLEKDRFSVNLDVKHFSPEELKVKVLGDVIEVHGKHEERQDEHGFISREFHRKYRIPADVDPLTITSSLSSDGVLTVNGPRKQVSGPERTIPITREEKPAVTAAPKK
notes: αB-crystallin, human, with the substitution S59A; Made by site-directed mutagenesis; called the control mutant; also called αB-S59A; source: E. coli BL21(DE3)pLysS, purified (Q-Sepharose, Superdex and Superose 6 size exclusion, ammonium sulphate)
B3: wild-type αB-crystallin (natural protein, human, UniProt P02511 1-175, looked up)
chain: B2 chain with A59S
notes: αB-crystallin, human, wild type; forms large polydisperse oligomers; no tag is mentioned; also called αB-WT; WT-αB; source: E. coli BL21(DE3)pLysS, purified (Q-Sepharose, Superdex and Superose 6 size exclusion, ammonium sulphate)
B4: αB-crystallin S59D (phosphomimetic mutant) (natural protein, human, UniProt P02511 1-175, looked up)
chain: B2 chain with A59D
notes: αB-crystallin, human, with the phosphomimetic substitution S59D; Made by site-directed mutagenesis; also called αB-S59D; αBS59D; source: E. coli BL21(DE3)pLysS, purified (Q-Sepharose, Superdex and Superose 6 size exclusion, ammonium sulphate)
B5: αB-crystallin ΔS59 (deletion of Serine 59) (natural protein, human, UniProt P02511 1-175, looked up)
chain: MDIAIHHPWIRRPFFPFHSPSRLFDQFFGEHLLESDLFPTSTSLSPFYLRPPSFLRAPWFDTGLSEMRLEKDRFSVNLDVKHFSPEELKVKVLGDVIEVHGKHEERQDEHGFISREFHRKYRIPADVDPLTITSSLSSDGVLTVNGPRKQVSGPERTIPITREEKPAVTAAPKK
notes: αB-crystallin, human, with Serine 59 deleted; Made by site-directed mutagenesis; also called αB-ΔS59; source: E. coli BL21(DE3)pLysS, purified (Q-Sepharose, Superdex and Superose 6 size exclusion, ammonium sulphate)

Biological target: the molecule itself
Test: negative-stain transmission electron microscopy; 0.05 mg/mL on glow-discharged carbon grids, 2% uranyl acetate; oligomers of the chaperone protein alone
Conditions: not given
B1: binds.

The molecules below were run against αB-crystallin (UniProt P02511) (assay: SEC-MALS of homo-oligomer mass; TEM). Conditions: reference: wild type; sites S59.
For “αB-crystallin (from UniProt P02511) S59D”, the “other: average oligomeric mass” value was “weaker; reference 579”. For “αB-crystallin (from UniProt P02511) ΔS59”, the “other: average oligomeric mass” value was “same; reference 579”. In the case of B2, the “other: average oligomeric mass” value is reported as “stronger; reference 579”.

Biological target: the molecule itself
Test: SEC-MALS; HPLC coupled with MALS; proteins (0.15 mg in 0.05 mL) incubated at 37°C for 1 hour before analysis; self-association into oligomers
Conditions: not given
B3: binds. B2: binds. B4: binds. B5: binds.

The molecules below were run against Luciferase (UniProt P08659 1-550 = luciferase) (assay: cell-based or functional assay). Conditions: not given.
Luciferase, sequence (P08659 whole entry): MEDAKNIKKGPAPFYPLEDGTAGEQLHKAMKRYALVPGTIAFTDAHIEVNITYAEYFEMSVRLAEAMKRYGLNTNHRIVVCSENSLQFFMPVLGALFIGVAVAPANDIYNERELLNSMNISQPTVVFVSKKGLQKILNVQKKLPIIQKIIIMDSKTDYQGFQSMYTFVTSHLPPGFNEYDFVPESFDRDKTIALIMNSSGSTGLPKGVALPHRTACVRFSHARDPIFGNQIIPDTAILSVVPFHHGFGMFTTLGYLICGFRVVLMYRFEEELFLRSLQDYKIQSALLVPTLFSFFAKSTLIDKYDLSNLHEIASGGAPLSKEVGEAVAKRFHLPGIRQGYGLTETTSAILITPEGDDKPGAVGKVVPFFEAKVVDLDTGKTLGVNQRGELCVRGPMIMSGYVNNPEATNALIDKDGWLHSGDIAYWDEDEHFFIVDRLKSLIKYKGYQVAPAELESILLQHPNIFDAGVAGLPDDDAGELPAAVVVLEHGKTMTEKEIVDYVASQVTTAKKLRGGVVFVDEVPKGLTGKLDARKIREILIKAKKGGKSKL
With B3 the “EC50 of suppression of luciferase (0.5 μM) aggregation, light scattering at 360 nm, 90 min, PBS, 37°C” value (shortened to “EC50 of suppression of luciferase”) was 4300 nM. For B2, the “EC50 of suppression of luciferase” value was 13700 nM. In the case of B4, the “EC50 of suppression of luciferase” value is reported as 1100 nM. With B1 the “EC50 of suppression of luciferase” value was 1200 nM. For B5, the “EC50 of suppression of luciferase” value was 8300 nM.

These molecules were tested against Lysozyme (UniProt P00698 19-147) (assay: cell-based or functional assay). Conditions: not given.
Lysozyme, sequence (P00698 19-147): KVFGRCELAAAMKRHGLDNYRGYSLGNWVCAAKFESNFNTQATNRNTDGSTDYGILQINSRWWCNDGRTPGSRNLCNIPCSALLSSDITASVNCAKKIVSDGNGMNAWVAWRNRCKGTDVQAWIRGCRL
With B3 the “protection against DTT-induced lysozyme (10 μM) aggregation, 2.5 μM chaperone, PBS, 2 mM DTT, 37°C, 6 hours” value (“protection against DTT-induced lysozyme” for short) was ~52%. For B2, the “protection against DTT-induced lysozyme” value was 84%. In the case of B1, the “protection against DTT-induced lysozyme” value is reported as > 95%. With B5 the “protection against DTT-induced lysozyme” value was 60%.

The molecules below were run against T1, Alcohol dehydrogenase (assay: cell-based or functional assay). Conditions: not given.
With B3 the “EC50 of suppression of ADH (2.5 μM) aggregation, light scattering at 360 nm, 90 min, PBS + 50 mM EDTA, 37°C” value (shortened to “EC50 of suppression of ADH”) was 1000 nM. For B2, the “EC50 of suppression of ADH” value was 1400 nM. For B4, the “EC50 of suppression of ADH” value was 500 nM. In the case of B1, the “chaperone efficiency against ADH (2.5 μM) aggregation relative to αB-S59D, light scattering at 360 nm, 90 min, PBS + 50 mM EDTA, 37°C” value is reported as 1.6 fold. In the case of B5, the “EC50 of suppression of ADH” value is reported as 1200 nM.
